In patent US20120195910A1 (published 2012):
Residue numbers refer to the chain shown, from its start.

B1: YW508.20.84 (antibody, V domains shown)
VH: EVQLVESGGGLVQPGGSLRLSCAASGFTFTGYAIHWVRQAPGKGLEWVARISPANGNTNYADSVKGRFTISADTSKNTAYLQMNSLRAEDTAVYYCARWIGSRELYIMDYWGQGTLVTVSS
VL: DIQMTQSPSSLSASVGDRVTITCRASQDVSTAVAWYQQKPGKAPKLLIYSASFLYSGVPSRFSGSGSGTDFTLTISSLQPEDFATYYCQQSYPAPSTFGQGTKVEIKR
B2: YW508.20.33 (antibody, V domains shown)
VH: B1 VH with T30S, G31S, Y32T
VL: B1 VL with P95L, S96H
B3: YW508.20 (antibody, V domains shown)
VH: B1 VH with A49G
VL: B1 VL with T31S, F53S, G66R, P93T, A94T, S96P
B4: YW508.20.04 (antibody, V domains shown)
VH: B1 VH with A49G
VL: B1 VL with S96A
B5: YW508.20.28 (antibody, V domains shown)
VH: B1 VH with G31R, Y32H, A33T
VL: B1 VL with P93R, A94I, P95Q, S96P
B6: YW508.20.06 (antibody, V domains shown)
VH: B1 VH
VL: B1 VL with A94S, S96A

Legend:
biotinylated human PCSK9 = biotinylated human PCSK9 (UniProt Q8NBP7 31-692, biotinylated (sites not given)); assay: competition binding ELISA (PCSK9-LDLR)
[1] = molecular target: Human PCSK9 (Genbank EF692496) containing a histidine (His)8 C-terminal tag (UniProt Q8NBP7 31-692); assay: BIAcore SPR; FIG. 3A

Binder | IC50 (biotinylated human PCSK9) [pM] | Kd [1] [pM]
B1 | 1390 | 481
B2 | 1310 | 408
B3 | 15200 | 
B4 | 920 | 757
B5 | 1050 | 349
B6 | 1000 | 628
